Measured values as given in doi:10.64898/2025.12.15.694324, “Dimerization of human PARP15 is required for NAD^+ binding and automodification” (bioRxiv, 2025).

Target: the molecule itself
Test: SEC-MALS; 50 µg of each sample, Superdex 200 increase 10/300, 30 mM HEPES pH 7.5, 300 mM NaCl, 5 % glycerol, 0.5 mM TCEP

B1: PARP15^FL WT, full-length long isoform 1 of human PARP15 (enzyme, UniProt Q460N3 1-678, looked up)
chain: MAAPGPLPAAALSPGAPTPRELMHGVAGVTSRAGRDREAGSVLPAGNRGARKASRRSSSRSMSRDNKFSKKDCLSIRNVVASIQTKEGLNLKLISGDVLYIWADVIVNSVPMNLQLGGGPLSRAFLQKAGPMLQKELDDRRRETEEKVGNIFMTSGCNLDCKAVLHAVAPYWNNGAETSWQIMANIIKKCLTTVEVLSFSSITFPMIGTGSLQFPKAVFAKLILSEVFEYSSSTRPITSPLQEVHFLVYTNDDEGCQAFLDEFTNWSRINPNKARIPMAGDTQGVVGTVSKPCFTAYEMKIGAITFQVATGDIATEQVDVIVNSTARTFNRKSGVSRAILEGAGQAVESECAVLAAQPHRDFIITPGGCLKCKIIIHVPGGKDVRKTVTSVLEECEQRKYTSVSLPAIGTGNAGKNPITVADNIIDAIVDFSSQHSTPSLKTVKVVIFQPELLNIFYDSMKKRDLSASLNFQSTFSMTTCNLPEHWTDMNHQLFCMVQLEPGQSEYNTIKDKFTRTCSSYAIEKIERIQNAFLWQSYQVKKRQMDIKNDHKNNERLLFHGTDADSVPYVNQHGFNRSCAGKNAVSYGKGTYFAVDASYSAKDTYSKPDSNGRKHMYVVRVLTGVFTKGRAGLVTPPPKNPHNPTDLFDSVTNNTRSPKLFVVFFDNQAYPEYLITFTA
modifications: weakly MARylated from expression in Sf21 insect cells
notes: PARP15, human, full-length canonical isoform 1 (the longer isoform, both macrodomains present); Cloned in pFastBac-His-MBP (#30116); tags cleaved with TEV protease; source: Sf21 insect cells (baculovirus), purified (Ni-NTA, amylose resin, TEV cleavage, SEC)
stoichiometry N: ~2
